Several values for one entry are separate records, joined by “and”; a condition that tells them apart may be missing. Equal values may be shown once.

The test system of one data set is patients with T2DM. The experiment in a line: Phase IIb and III clinical trials of YN-011 in combination with metformin in T2DM. The following applies: 3 mg YN-011 in combination with metformin, 24 weeks. It counts as in vivo. As to the method: The Phase IIb and III clinical trials were multicenter, randomized, double-blind, placebo-controlled studies evaluating the efficacy and safety of YN-011 in patients with T2DM who had inadequate glycemic control on metformin therapy. The Phase IIb trial aimed to explore dose response and evaluate safety (divided into three groups: YN-011 1 mg+metformin, YN-011 3 mg+metformin, and placebo+metformin), to determine the Recommended Phase 3 Dose (RP3D) for the Phase III trial, which aimed at efficacy confirmation . . .
The inclusion criteria for subjects in the Phase IIb and III studies of YN-011 in combination with metformin were primarily the same as those in Implementation Example 10, except for the following point: • Diagnosed with type 2 diabetes for at least 8 weeks (WHO 2000), and met one of the following conditions: • a) Received monotherapy with metformin for >8 weeks with a dose of ≥1500 mg/day or maximum tolerated dose (<1500 mg/day but ≥1000 mg/day) (eligible subjects could directly enter the run-in period). • b) Received monotherapy with metformin for <8 weeks with a dose of ≥1500 mg/day or maximum tolerated dose (<1500 mg/day but ≥1000 mg/day) (eligible subjects needed to enter the metformin dose stabilization period). • c) Received monotherapy with metformin at a dose <1500 mg/day and had not reached the maximum tolerated dose (eligible subjects needed to enter the metformin dose titration period and dose stabilization period).
Please refer to the exclusion criteria in Implementation Example 10 for the primary exclusion criteria for subjects in the Phase IIb and III studies of YN-011 in combination with metformin.
Primary efficacy endpoints included the comparison of YN-011 in combination with metformin versus placebo in combination with metformin in terms of the change in HbA1c levels from baseline after 12 weeks (Phase IIb) or 24 weeks (Phase III) of double-blind administration in patients with T2DM who had inadequate glycemic control on metformin therapy. Please refer to Implementation Example 10 for the secondary efficacy endpoints and safety assessments.

The test system of the next data set is INS-1 cells. Kind of data set: Assessment of YN-011 activity by inducing cAMP levels in INS-1 cells. Type of data set: cell-based. Particulars: YN-011 120 nM. As to the method: Natural GLP-1 stimulates insulin secretion from beta cells in a glucose-dependent manner. […] INS-1 cells were serum-starved and glucose-starved, then treated with different amounts of purified YN-011 in the presence of 0, 5, or 20 mM glucose as indicated.
Furthermore, the blank control (SF1) and the two samples with the […] hydroxylation levels (SF4 and SF5) were tested for the biological activity of YN-011 using the method described in Example 1. […] Thus, higher hydroxylation levels tend to increase the biological activity.
For orientation: cAMP levels reflect the balance of adenylyl cyclase and phosphodiesterase activity.

A further data set relates to NASH Rhesus monkeys. Kind of data set: NASH Rhesus monkeys, liver biopsy histology (NAS and fibrosis scores). Type of data set: in vivo. Also noted: key to Fibrosis score: 0: No fibrosis observed; 1a: Mild perisinus fibrosis in zone 3; 1b: Moderate sinus fibrosis in zone 3; 1c: Periportal fibrosis; 2: Perisinus and periportal fibrosis; 3: Bridging fibrosis; 4: Cirrhosis; key to NAS Score: NAFLD activity score (NAS) from steatosis, inflammation, ballooning grades. Particulars: for Fibrosis score / NAS Score / Steatosis score: individual animals. As to the method: Amount of specimens collected: ≤2 needles, each needle with a specimen length≤1.5 cm, and the total cumulative specimen length≤3 cm.
Approximately 2 cm of the collected tissue was immediately placed in 4% buffered formalin at room temperature and fixed for at least 24 hours. After appropriate modifications, dehydration, embedding, sectioning, HE staining, and Masson staining were performed.
Tissue sections were stained with H&E and Masson stains. Pathological slides were evaluated by a pathologist according to the diagnostic and treatment guidelines for non-alcoholic fatty liver disease (NAFLD) jointly drafted by the American Association for the Study of Liver Diseases (AASLD), the American College of Gastroenterology (ACG), and the American Gastroenterological Association (AGA). The diagnostic criteria can be found in Table 2 and Table 3.
After adequate fixation of the liver biopsy specimens, they were dehydrated, infiltrated with paraffin, embedded, and sectioned (5 μm) directly.
Routine deparaffinization of the sections was performed. The sections were sequentially immersed in 100% ethanol I, 100% ethanol II, 95%, 85%, and 75% ethanol for 3 minutes each. They were then rinsed with tap water for 3 minutes, stained with hematoxylin-eosin (HE) staining solution for 12 minutes, rinsed with tap water for 5 minutes, and stained with eosin Y solution (aqueous) for 3 minutes. Dehydration was carried out rapidly with 95% ethanol, followed by two rounds of dehydration with absolute ethanol for 2-5 minutes each. The sections were then cleared with xylene twice for 10 minutes each. Neutral mounting medium was applied, and microscopic examination was performed.
Routine deparaffinization of the sections was performed. The sections were stained with Weigert's iron hematoxylin for 5-7 minutes, and simultaneously, weak acid working solution was prepared by mixing distilled water and weak acid solution in a ratio of 2:1. The sections were rinsed with weak acid working solution for 1 minute. After rinsing with phosphomolybdic acid solution for 1-2 minutes, the sections were directly placed in aniline blue staining solution for 1-2 minutes, followed by rinsing with the prepared weak acid working solution for 1 minute. Dehydration was carried out rapidly with 95% ethanol, followed by two rounds of dehydration with absolute ethanol for 2-5 minutes each. The sections were then cleared with xylene twice for 10 minutes each. Neutral mounting medium was applied, and microscopic examination was performed.
The sections were observed under a microscope (with a digital imaging system), and pathological diagnosis and photography were performed. Based on the histopathological diagnosis, the HE and Masson results were scored according to the scoring criteria for non-alcoholic fatty liver disease activity score (NAS, Table 8) and liver fibrosis staging (Table 9).
Fifteen Rhesus monkeys were divided into 3 groups, with 5 monkeys in each group. They received subcutaneous injections of 0 (solvent control, placebo control group), 0.050, or 0.150 mg/kg of YN-011 once a week for 13 weeks (QW). The 0.150 mg/kg YN-011 group received adaptive dosing (0.1 mg/kg for the first dose, followed by 0.150 mg/kg for the remaining 12 doses).
To investigate whether YN-011 treatment led to histological improvements in the liver, liver biopsy specimens were collected from all Rhesus monkeys before the first injection and on day 89 after the first injection. Liver slices were stained with HE and Masson stains for histological analysis. The degrees of steatosis, inflammation, hepatocyte ballooning, and fibrosis were scored according to the standards for NAFLD activity and NASH progression.

The mark [1] stands for this setting: 50 μg/kg group, Day 89 post-injection.
The mark [2] stands for this setting: 150 μg/kg group, Day 89 post-injection.

B1: YN-011: GLP-1 fusion protein of SEQ ID NO: 7: GLP-1 (A8G, G22E, R36G), linker peptide and IgG2/Fc domain (C222S, A330S, P331S) (protein)
chain: HGEGTFTSDVSSYLEEQAAKEFIAWLVKGGGSSGAPPPSGGGGSERKSCVECPPCPAPPVAGPSVFLFPPKPKDTLMISRTPEVTCVVVDVSHEDPEVQFNWYVDGVEVHNAKTKPREEQFNSTFRVVSVLTVVHQDWLNGKEYKCKVSNKGLPSSIEKTISKTKGQPREPQVYTLPPSREEMTKNQVSLTCLVKGFYPSDIAVEWESNGQPENNYKTTPPMLDSDGSFFLYSKLTVDKSRWQQGNVFSCSVMHEALHNHYTQKSLSLSPG
Consider B1, for which, in the data set with patients with T2DM, the “incidence of hypoglycemia (<3.9 mmol/L)” value was found to be 1.8%, the incidence of nausea is recorded as 7.0%, the “reduction in FPG levels” value is reported as 2.42% and the “reduction in HbA1c levels” value was 1.8%. For the same molecule, the cAMP levels result in the data set on INS-1 cells (5 mM glucose, comparable to exendin-4) is given as “significantly increased”. Moreover, the cAMP levels entry in the data set with INS-1 cells (absence of glucose) was “maintained basal levels of cAMP”. Moreover, in the data set with NASH Rhesus monkeys (50 μg/kg group, Baseline), the Fibrosis score was 1a (2×) and 1c (2×) and 0-1a; the “NAS Score” value was 3 (2×) and 4 (3×); the Steatosis score is 1 (5%~33%) (4×) and 2 (34%~66%). In the data set on NASH Rhesus monkeys (setting [1]), the Fibrosis score is 1a (2×) and 0~1a (3×); the “NAS Score” value is 2 (3×) and 1 (2×); the Steatosis score is 0 (<5%) (4×) and 1 (5%~33%). Besides, in the data set on NASH Rhesus monkeys (150 μg/kg group, Baseline), the Fibrosis score is 1a (2×) and 1b (2×) and 0~1a; the “NAS Score” value is 3 (2×) and 4 (3×); the Steatosis score was 2 (34%~66%) (4×) and 3 (>66%). In the data set on NASH Rhesus monkeys (setting [2]), the Fibrosis score is 1a (2×) and 1b and 0~1a (2×); the “NAS Score” value is 1 (3×) and 2 (2×); the Steatosis score was 1 (5%~33%) (3×) and 0 (<5%) (2×). Moreover, the “NAS and liver fibrosis scores (liver biopsy)” value in the data set on NASH Rhesus monkeys (NASH Rhesus monkeys treated with YN-011) is “reduction in both NAS and liver fibrosis scores”.

The values are drawn from US20250376498A1, “FUSION PROTEINS COMPRISING AN IMPROVED GLP-1 RECEPTOR AGONIST AND USES THEREOF” (Guangzhou Innogen Pharmaceutical Group Co., Ltd., priority 2022, published 2025).
